Substitutions are numbered along the chain they refer to.

The assay deals with SARS-CoV-2 spike protein (SARS-CoV-2 Wuhan-Hu-1 (QHD43416), UniProt P0DTC2, stabilised). Put plainly: ELISA. A general note: An ELISA detects its analyte on a solid surface through an enzyme-linked reagent.

B1: MD17 (scFv, V domains shown)
VH: EVQLLESGGGLVQPGGSLRLSCSASGFTFSTYVMNWVRQAPGKGLEHVSGISSDGGITYYADSVKGRFTISRDNSKNTLYLQMSSLRVEDTAVYYCVKDQDSSSWYDAFDIWGQGTMVTVSS
VL: DIVMTQSPSSLSASVGDRVTITCRASQSISNYLNWYQQKLGKAPKLLTYAASRLQSGVPSRFSASGSGTEFTLTISSLQPEDFATYYCQQSYTTPLTFGGGTKLEIK
Turning to B1, the binding result is “binds”.

B2: MD29 (scFv, V domains shown)
VH: B1 VH with E1Q, V2M, L5V, E6Q, L45P
VL: NIRLTQSPSSLSASVGDRVTITCRATQSISSYLNWYQQKPGKAPNLLIYAASSLQSGVPSRFSGSGSGTDFTLTISSLQPEDFATYYCHQTYTSPYTFGQGTKLEIK
Consider B2, for which the binding result is listed as “binds”.

B3: MD47 (scFv, V domains shown)
V domain 1: QMQLVQSGGGLVQPGGSLRLSCAASGFTFSSYAMSWVRQAPGKGLEWVSAISSGGSTYYADSVKGRFTISRDNSKNTLYLQMNSLRAEDTAVYYCAKDLVTAPSYEAFDIWGQGTMITVSS
V domain 2: NFMLTQPPSVSVAPGKTARITCGGNNIGSKSVHWYQQKPGQAPVLVIYYDSDRPSGIPERFSGSNSGNTATLTISRVEAGDEADYYCQVWDSSSHHHVVFGGGTKGTVL
Regarding B3, the binding result is reported as “binds”.

B4: MD62 (scFv, V domains shown)
VH: EVQLVQSGGGLIQPGGSLRLSCAASGVTVSSNYMTWVRQAPGKGLEWVSLIYSGGSTYYADSVKGRFTISRDNSKNTLYLQMNSLRAEDTAVYYCARDLQYYGMDVWGQGTMVTVSS
VL: AIRMTQSPSSVSASVGDRVTITCRASQDIGSWLGWYQQKPGKAPKLLIYAASSLAGGVPSRFSGSGSGTDFTLTISSLQPEDFATYYCQQANSFPLTFGGGTKLEIK
Regarding B4, the binding result is reported as “binds”.

The values above are taken from paper doi:10.1101/2020.05.20.106609 (bioRxiv, 2020).
